Experimental data from PMC12416549 (2024).

T1: TNFR1 (Homo sapiens, UniProt P19438)
T1 chain: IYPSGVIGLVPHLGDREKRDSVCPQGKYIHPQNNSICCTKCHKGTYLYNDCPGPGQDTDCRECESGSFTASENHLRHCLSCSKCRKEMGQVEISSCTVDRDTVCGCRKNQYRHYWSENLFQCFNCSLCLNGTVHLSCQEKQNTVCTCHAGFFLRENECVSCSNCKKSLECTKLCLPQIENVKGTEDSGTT


Biological target: T1, TNFR1
Test: yeast display SC50

apparent Kd (screen) [nM] | Binder
0.446 | E95L (designed binder) MTLQELLREEALRRAEAEAFRYALELLAEKFPEQKEYLLDLAEEIESQIRSLSGVDVEDVRKFLDKEWAWVKELLAEHPAELAEVEAARAARLALLRAEVEAKVAA
0.79 | R89A (designed binder) MTLQELLREEALRRAEAEAFRYALELLAEKFPEQKEYLLDLAEEIESQIRSLSGVDVEDVRKFLDKEWAWVKELLAEHPAELAEVEAAAAARLAELRAEVEAKVAA
0.956 | A87T (designed binder) MTLQELLREEALRRAEAEAFRYALELLAEKFPEQKEYLLDLAEEIESQIRSLSGVDVEDVRKFLDKEWAWVKELLAEHPAELAEVETARAARLAELRAEVEAKVAA
0.718 | A90R (designed binder) MTLQELLREEALRRAEAEAFRYALELLAEKFPEQKEYLLDLAEEIESQIRSLSGVDVEDVRKFLDKEWAWVKELLAEHPAELAEVEAARRARLAELRAEVEAKVAA
1.4 | W68A (designed binder) MTLQELLREEALRRAEAEAFRYALELLAEKFPEQKEYLLDLAEEIESQIRSLSGVDVEDVRKFLDKEAAWVKELLAEHPAELAEVEAARAARLAELRAEVEAKVAA
0.49 | A80Q (designed binder) MTLQELLREEALRRAEAEAFRYALELLAEKFPEQKEYLLDLAEEIESQIRSLSGVDVEDVRKFLDKEWAWVKELLAEHPQELAEVEAARAARLAELRAEVEAKVAA
0.718 | L75Y (designed binder) MTLQELLREEALRRAEAEAFRYALELLAEKFPEQKEYLLDLAEEIESQIRSLSGVDVEDVRKFLDKEWAWVKELYAEHPAELAEVEAARAARLAELRAEVEAKVAA
13.8 | E67G (designed binder) MTLQELLREEALRRAEAEAFRYALELLAEKFPEQKEYLLDLAEEIESQIRSLSGVDVEDVRKFLDKGWAWVKELLAEHPAELAEVEAARAARLAELRAEVEAKVAA
0.79 | V85A (designed binder) MTLQELLREEALRRAEAEAFRYALELLAEKFPEQKEYLLDLAEEIESQIRSLSGVDVEDVRKFLDKEWAWVKELLAEHPAELAEAEAARAARLAELRAEVEAKVAA
0.539 | R97N (designed binder) MTLQELLREEALRRAEAEAFRYALELLAEKFPEQKEYLLDLAEEIESQIRSLSGVDVEDVRKFLDKEWAWVKELLAEHPAELAEVEAARAARLAELNAEVEAKVAA
0.956 | L96R (designed binder) MTLQELLREEALRRAEAEAFRYALELLAEKFPEQKEYLLDLAEEIESQIRSLSGVDVEDVRKFLDKEWAWVKELLAEHPAELAEVEAARAARLAERRAEVEAKVAA
1.05 | R89G (designed binder) MTLQELLREEALRRAEAEAFRYALELLAEKFPEQKEYLLDLAEEIESQIRSLSGVDVEDVRKFLDKEWAWVKELLAEHPAELAEVEAAGAARLAELRAEVEAKVAA
0.869 | E86Q (designed binder) MTLQELLREEALRRAEAEAFRYALELLAEKFPEQKEYLLDLAEEIESQIRSLSGVDVEDVRKFLDKEWAWVKELLAEHPAELAEVQAARAARLAELRAEVEAKVAA

Further lines, the binder ahead of its results:

Binder | apparent Kd (screen) [nM]
E44H (designed binder) MTLQELLREEALRRAEAEAFRYALELLAEKFPEQKEYLLDLAEHIESQIRSLSGVDVEDVRKFLDKEWAWVKELLAEHPAELAEVEAARAARLAELRAEVEAKVAA | 2.05
I49R (designed binder) MTLQELLREEALRRAEAEAFRYALELLAEKFPEQKEYLLDLAEEIESQRRSLSGVDVEDVRKFLDKEWAWVKELLAEHPAELAEVEAARAARLAELRAEVEAKVAA | 0.593
E46Y (designed binder) MTLQELLREEALRRAEAEAFRYALELLAEKFPEQKEYLLDLAEEIYSQIRSLSGVDVEDVRKFLDKEWAWVKELLAEHPAELAEVEAARAARLAELRAEVEAKVAA | 0.539
D59M (designed binder) MTLQELLREEALRRAEAEAFRYALELLAEKFPEQKEYLLDLAEEIESQIRSLSGVDVEMVRKFLDKEWAWVKELLAEHPAELAEVEAARAARLAELRAEVEAKVAA | 0.539
S47E (designed binder) MTLQELLREEALRRAEAEAFRYALELLAEKFPEQKEYLLDLAEEIEEQIRSLSGVDVEDVRKFLDKEWAWVKELLAEHPAELAEVEAARAARLAELRAEVEAKVAA | 0.49
A15Y (designed binder) MTLQELLREEALRRYEAEAFRYALELLAEKFPEQKEYLLDLAEEIESQIRSLSGVDVEDVRKFLDKEWAWVKELLAEHPAELAEVEAARAARLAELRAEVEAKVAA | 0.539
S47G (designed binder) MTLQELLREEALRRAEAEAFRYALELLAEKFPEQKEYLLDLAEEIEGQIRSLSGVDVEDVRKFLDKEWAWVKELLAEHPAELAEVEAARAARLAELRAEVEAKVAA | 1.27
A11Q (designed binder) MTLQELLREEQLRRAEAEAFRYALELLAEKFPEQKEYLLDLAEEIESQIRSLSGVDVEDVRKFLDKEWAWVKELLAEHPAELAEVEAARAARLAELRAEVEAKVAA | 0.79
E33L (designed binder) MTLQELLREEALRRAEAEAFRYALELLAEKFPLQKEYLLDLAEEIESQIRSLSGVDVEDVRKFLDKEWAWVKELLAEHPAELAEVEAARAARLAELRAEVEAKVAA | 0.653
R50E (designed binder) MTLQELLREEALRRAEAEAFRYALELLAEKFPEQKEYLLDLAEEIESQIESLSGVDVEDVRKFLDKEWAWVKELLAEHPAELAEVEAARAARLAELRAEVEAKVAA | 0.446
T2A (designed binder) MALQELLREEALRRAEAEAFRYALELLAEKFPEQKEYLLDLAEEIESQIRSLSGVDVEDVRKFLDKEWAWVKELLAEHPAELAEVEAARAARLAELRAEVEAKVAA | 0.79
V60H (designed binder) MTLQELLREEALRRAEAEAFRYALELLAEKFPEQKEYLLDLAEEIESQIRSLSGVDVEDHRKFLDKEWAWVKELLAEHPAELAEVEAARAARLAELRAEVEAKVAA | 1.27
A42C (designed binder) MTLQELLREEALRRAEAEAFRYALELLAEKFPEQKEYLLDLCEEIESQIRSLSGVDVEDVRKFLDKEWAWVKELLAEHPAELAEVEAARAARLAELRAEVEAKVAA | 1.05
P32Q (designed binder) MTLQELLREEALRRAEAEAFRYALELLAEKFQEQKEYLLDLAEEIESQIRSLSGVDVEDVRKFLDKEWAWVKELLAEHPAELAEVEAARAARLAELRAEVEAKVAA | 0.593
D56H (designed binder) MTLQELLREEALRRAEAEAFRYALELLAEKFPEQKEYLLDLAEEIESQIRSLSGVHVEDVRKFLDKEWAWVKELLAEHPAELAEVEAARAARLAELRAEVEAKVAA | 1.86
K62F (designed binder) MTLQELLREEALRRAEAEAFRYALELLAEKFPEQKEYLLDLAEEIESQIRSLSGVDVEDVRFFLDKEWAWVKELLAEHPAELAEVEAARAARLAELRAEVEAKVAA | 0.593
E25I (designed binder) MTLQELLREEALRRAEAEAFRYALILLAEKFPEQKEYLLDLAEEIESQIRSLSGVDVEDVRKFLDKEWAWVKELLAEHPAELAEVEAARAARLAELRAEVEAKVAA | 0.869
Q4N (designed binder) MTLNELLREEALRRAEAEAFRYALELLAEKFPEQKEYLLDLAEEIESQIRSLSGVDVEDVRKFLDKEWAWVKELLAEHPAELAEVEAARAARLAELRAEVEAKVAA | 0.405
L39A (designed binder) MTLQELLREEALRRAEAEAFRYALELLAEKFPEQKEYLADLAEEIESQIRSLSGVDVEDVRKFLDKEWAWVKELLAEHPAELAEVEAARAARLAELRAEVEAKVAA | 2.05
R8K (designed binder) MTLQELLKEEALRRAEAEAFRYALELLAEKFPEQKEYLLDLAEEIESQIRSLSGVDVEDVRKFLDKEWAWVKELLAEHPAELAEVEAARAARLAELRAEVEAKVAA | 0.539
D59L (designed binder) MTLQELLREEALRRAEAEAFRYALELLAEKFPEQKEYLLDLAEEIESQIRSLSGVDVELVRKFLDKEWAWVKELLAEHPAELAEVEAARAARLAELRAEVEAKVAA | 0.718
E36K (designed binder) MTLQELLREEALRRAEAEAFRYALELLAEKFPEQKKYLLDLAEEIESQIRSLSGVDVEDVRKFLDKEWAWVKELLAEHPAELAEVEAARAARLAELRAEVEAKVAA | 3.99
